The target of assay [1] is lysine-acetylated histone H4 peptide SGRGKGG-AcK-GLGK (Lys8 acetylated). In words: NMR titration, amide chemical shift changes in 15N-HSQC spectra against ligand concentration.
Assay [2] addresses histone H4 AcK16 peptide …-AcK-RHRK (SEQ ID NO:59). The experiment in a line: NMR 2D 1H-15N HSQC titration; 'binds weakly'.

Chain of histone H4 AcK16 peptide …-AcK-RHRK (SEQ ID NO:59) (peptide, as listed by the source): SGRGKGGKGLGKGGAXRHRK

B1: P/CAF bromodomain (residues 719-832 of human p300/CBP-associated factor), wild-type, Q92831 719-832 (protein)
chain: SKEPRDPDQLYSTLKSILQQVKSHQSAWPFMEPVKRTEAPGYYEVIRFPMDLKTMSERLKNRYYVSKKLFMADLQRVFTNCKEYNAAESEYYKCANILEKFFFSKIKEAGLIDK
Usually Kd stands for the free concentration of one partner at which half of the binding sites on the other are occupied at equilibrium, for simple one-to-one binding. Regarding B1, the Kd in assay [1] stood at 346 µM.

B2: bromodomain of P/CAF (residues 719-832 of SEQ ID NO:2), Q92831 719-832 (protein)
chain: SKEPRDPDQLYSTLKSILQQVKSHQSAWPFMEPVKRTEAPGYYEVIRFPMDLKTMSERLKNRYYVSKKLFMADLQRVFTNCKEYNAAESEYYKCANILEKFFFSKIKEAGLIDK
B2: in assay [2], the Kd is below 300 µM.

Source of the values: US20040043378A1.
